T1: Halo-Kar3 (full-length Kar3 fused to a HaloTag) (S. cerevisiae (S288c), UniProt P17119 1-729, HaloTag TMR ligand (tetramethylrhodamine) or HaloTag Alexa488 ligand covalently bound to the HaloTag)
T1 construct: methods and legends say amino-terminal; also called Kar3-Halo; Kar3-HALO; not shown: HaloTag, N-terminal, kept
T1 sequence (looked up): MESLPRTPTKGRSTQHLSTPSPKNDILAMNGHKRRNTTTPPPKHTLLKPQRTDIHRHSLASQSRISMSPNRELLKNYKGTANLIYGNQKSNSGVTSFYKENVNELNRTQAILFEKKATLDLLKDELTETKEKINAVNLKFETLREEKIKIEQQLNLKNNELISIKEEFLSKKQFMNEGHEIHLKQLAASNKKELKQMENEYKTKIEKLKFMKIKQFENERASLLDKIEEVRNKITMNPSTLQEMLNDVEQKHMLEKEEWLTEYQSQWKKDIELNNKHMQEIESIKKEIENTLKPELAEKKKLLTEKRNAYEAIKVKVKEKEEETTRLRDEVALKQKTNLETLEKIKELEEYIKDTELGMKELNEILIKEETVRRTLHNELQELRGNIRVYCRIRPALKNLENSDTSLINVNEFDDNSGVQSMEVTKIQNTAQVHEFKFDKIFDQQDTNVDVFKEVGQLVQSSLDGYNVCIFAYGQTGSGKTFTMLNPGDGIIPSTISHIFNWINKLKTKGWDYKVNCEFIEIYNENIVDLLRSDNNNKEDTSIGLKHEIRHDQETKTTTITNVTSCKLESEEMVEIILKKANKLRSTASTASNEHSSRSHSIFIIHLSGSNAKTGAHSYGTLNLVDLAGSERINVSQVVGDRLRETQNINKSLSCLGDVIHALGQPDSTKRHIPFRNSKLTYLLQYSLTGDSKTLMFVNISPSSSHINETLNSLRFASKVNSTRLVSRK

B1: GST-Bim1^FL (natural protein, budding yeast, UniProt P40013 1-344, looked up)
chain: MSAGIGESRTELLTWLNGLLNLNYKKIEECGTGAAYCQIMDSIYGDLPMNRVKFNATAEYEFQTNYKILQSCFSRHGIEKTVYVDKLIRCKFQDNLEFLQWLKKHWIRHKDESVYDPDARRKYRPIITNNSATKPRTVSNPTTAKRSSSTGTGSAMSGGLATRHSSLGINGSRKTSVTQGQLVAIQAELTKSQETIGSLNEEIEQYKGTVSTLEIEREFYFNKLRDIEILVHTTQDLINEGVYKFNDETITGHGNGNGGALLRFVKKVESILYATAEGFEMNDGEDELNDKNLGEHGTVPNQGGYANSNGEVNGNEGSNHDVIMQNDEGEVGVSNNLIIDEETF
notes: Bim1, the EB1 homologue of budding yeast, full length; also called full-length Bim1; source: recombinant; expressed and purified as described previously (Zimniak et al., 2009)
B2: Bim1 (as used in analytical size exclusion chromatography) (natural protein, budding yeast, UniProt P40013 1-344, looked up)
chain: B1 chain
notes: Bim1, the EB1 homologue of budding yeast; source: recombinant; expressed and purified as described previously (Zimniak et al., 2009)
B3: GST-Bim1^185–344 (domain or fragment, budding yeast, UniProt P40013 185-344, looked up)
chain: IQAELTKSQETIGSLNEEIEQYKGTVSTLEIEREFYFNKLRDIEILVHTTQDLINEGVYKFNDETITGHGNGNGGALLRFVKKVESILYATAEGFEMNDGEDELNDKNLGEHGTVPNQGGYANSNGEVNGNEGSNHDVIMQNDEGEVGVSNNLIIDEETF
notes: also called C-terminal EB homology domain of Bim1; source: recombinant; expressed and purified as described previously (Zimniak et al., 2009)
B4: Cik1-1xFLAG (full-length Cik1, aa 1–594) (natural protein, S. cerevisiae (S288c), UniProt Q01649 1-594, looked up)
chain: MNNSKIPKLSFHSDPNNVTRDFPKTKRQKVQKREMDMILTPNNNKLNILHSSGSGIRRCYTDDTSATYTKKLTFGGDPKIIERVKNNERKVRKDIDSLLNAISEIEKESVRIHARELPAITLELDAKVKACRELQNEIDGLSTEMDLKDNQCDLQRKNVELSSKNIVSMHAVKVQEFENDLEEELSNAKREWTYKLMEVENLKPDERLTDEMRQLKTEFEEVNRKLFILQNENENECKNYKKELDKKFEIFKKVKNDARIELDGEQERLSKVLKDLQDTHGELKENIKTCRDEFNDFEKRIGEAEVNFHSMELAVVPLKKKLASTSQALTQVQEEKKQVEGEANNWKKKYVNELEKVQQELYTRQNLATSIEEIKGYTRCFAYANERQMPDEFHINYVDRCICENSGEKRVQVFDRVVLEEIHKDHKRLYNECIPFLEKYISKLINCSIIVVSQQPTAPMKKTLLKQLIEQYGENYKMTLNILHLDGSIKHSDVGLDNPTEIRDLSQDEECMNILTLDTKLGKDEESHSMNIYIGSMSTVQLNRELDDAPSVLSHILTKTKQCFVFKINAGENIEKALALAGKLKRTITLPQLD
notes: source: if needed MonoS; not shown: 1xFLAG, C-terminal, kept
B5: Cik1–Kar3 heterodimer (full-length Cik1-1xFLAG with Halo-Kar3) (complex, S. cerevisiae (S288c))
chain 1: T1 sequence (looked up)
chain 2: B4 chain
modifications: HaloTag TMR ligand or HaloTag Alexa488 ligand covalently bound to the HaloTag (imaging experiments)
notes: also called Cik1–Kar3-Halo; Cik1–Halo–Kar3; source: if needed MonoS; not shown: HaloTag, N-terminal, kept

Experiments:
[1] = biological target: B5; test: pull-down; 0.1–1 μM GST-tagged bait immobilised on glutathione sepharose; binding partner at a constant 0.5–1 μM; 25 mM Hepes pH 7.2, 250 mM NaCl, 1 mM MgCl2, 1 mM EGTA, 0.5 mM DTT, 0.05% NP-40; 1 hr at 4°C; SDS-PAGE, Coomassie; settings: both partners purified
[2] = biological target: B5; test: SEC; analytical size exclusion chromatography of Cik1–Kar3 and Bim1 individually or in combination; settings: both partners purified
[3] = biological target: T1, Halo-Kar3 (full-length Kar3 fused to a …); test: co-IP; two subunits co-overexpressed in S. cerevisiae; FLAG-tagged subunit bound to M2 anti-FLAG affinity agarose (lysis buffer 300 mM NaCl, washes 150 mM NaCl), HaloTag labelled on the resin, eluted with 3xFLAG peptide; Coomassie SDS-PAGE and fluorescence of the Halo-Kar3 subunit; settings: partners not purified
[4] = biological target: T2, recombinant full-length Ndc80 complex (Ndc80p-6xHis/Nuf2p-EGFP and Spc24p/6xHis/Spc25p) (UniProt P40460 1-691; P33895 1-451; Q04477 1-213; P40014 1-221); test: in vitro recruitment to microtubules (TIRF microscopy); bulk recruitment assay in the absence of nucleotide; TMR-labeled Kar3 motors and fluorescently labeled recombinant Ndc80 complex on surface-immobilised taxol-stabilized microtubules; settings: both partners purified
T2 construct: Ndc80p, budding yeast; Nuf2p, budding yeast; Spc24p, budding yeast; Spc25p, budding yeast; also called Ndc80-eGFP complex; Ndc80 kinetochore complex; source: recombinant; expression and purification as described previously (Lampert et al., 2013; Lampert et al., 2010); copies: + + +
T2 sequence (P40460 whole entry, chain 1 of 4): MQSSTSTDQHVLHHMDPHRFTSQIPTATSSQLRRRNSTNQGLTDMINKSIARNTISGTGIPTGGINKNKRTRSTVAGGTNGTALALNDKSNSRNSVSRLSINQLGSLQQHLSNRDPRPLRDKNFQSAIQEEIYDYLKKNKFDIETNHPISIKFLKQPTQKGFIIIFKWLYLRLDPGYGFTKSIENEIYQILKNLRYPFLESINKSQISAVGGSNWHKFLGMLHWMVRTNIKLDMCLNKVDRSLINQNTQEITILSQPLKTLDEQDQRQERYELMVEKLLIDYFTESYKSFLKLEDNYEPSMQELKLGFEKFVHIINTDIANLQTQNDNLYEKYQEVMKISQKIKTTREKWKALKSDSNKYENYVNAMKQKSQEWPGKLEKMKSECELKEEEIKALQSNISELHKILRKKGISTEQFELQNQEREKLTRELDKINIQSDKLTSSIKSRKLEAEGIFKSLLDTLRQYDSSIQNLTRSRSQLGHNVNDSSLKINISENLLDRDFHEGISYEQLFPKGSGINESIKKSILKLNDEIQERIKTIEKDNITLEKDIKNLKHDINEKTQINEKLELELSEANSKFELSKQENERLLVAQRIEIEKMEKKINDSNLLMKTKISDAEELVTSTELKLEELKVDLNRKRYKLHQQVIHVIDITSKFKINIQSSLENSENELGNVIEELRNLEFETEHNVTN
T2 sequence (P33895 whole entry, chain 2 of 4): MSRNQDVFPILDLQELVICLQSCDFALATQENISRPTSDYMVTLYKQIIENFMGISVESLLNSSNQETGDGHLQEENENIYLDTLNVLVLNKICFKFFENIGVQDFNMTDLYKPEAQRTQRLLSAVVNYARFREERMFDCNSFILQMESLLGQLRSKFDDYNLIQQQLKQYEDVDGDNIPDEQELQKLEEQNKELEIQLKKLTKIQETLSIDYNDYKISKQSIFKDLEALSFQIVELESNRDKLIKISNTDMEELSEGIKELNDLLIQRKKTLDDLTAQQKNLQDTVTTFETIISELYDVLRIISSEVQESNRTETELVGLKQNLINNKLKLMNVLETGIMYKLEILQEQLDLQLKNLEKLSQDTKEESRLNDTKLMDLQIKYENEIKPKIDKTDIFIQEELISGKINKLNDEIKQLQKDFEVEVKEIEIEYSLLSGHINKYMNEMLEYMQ
T2 sequence (Q04477 whole entry, chain 3 of 4): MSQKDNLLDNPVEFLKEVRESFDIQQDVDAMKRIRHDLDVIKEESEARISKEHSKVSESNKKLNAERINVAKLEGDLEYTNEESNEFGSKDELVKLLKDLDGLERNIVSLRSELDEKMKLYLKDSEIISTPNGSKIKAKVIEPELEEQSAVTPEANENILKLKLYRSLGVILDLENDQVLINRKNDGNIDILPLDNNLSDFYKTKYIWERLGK
T2 sequence (P40014 whole entry, chain 4 of 4): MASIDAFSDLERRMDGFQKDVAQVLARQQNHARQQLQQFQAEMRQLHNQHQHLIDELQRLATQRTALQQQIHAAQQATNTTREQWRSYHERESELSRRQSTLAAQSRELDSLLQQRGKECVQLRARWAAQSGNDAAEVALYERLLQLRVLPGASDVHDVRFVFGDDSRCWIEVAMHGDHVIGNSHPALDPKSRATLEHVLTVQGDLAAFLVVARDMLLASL

Binder: B1
binding result [1]: binds

Binder: B2
binding result [2]: binds

Binder: B3
binding result [1]: binds

Binder: B4
binding result [3]: binds

Binder: B5
binding result [4]: binds
